In publication PMC7864929, “Crystal structure of the human PRPK–TPRKB complex” (Communications Biology, 2021):

T1: MBP-tagged OSGEP (human, UniProt Q9NPF4 1-335)
T1 construct: human OSGEP (gene bought from DNAsu); Cloned into a modified pMal-c2X vector; also called MBP-OSGEP; Kae1 (yeast ortholog); source: E. coli BL21-CodonPlus (DE3), purified (amylose resin, HiTrap Q anion exchange)
T1 sequence (looked up): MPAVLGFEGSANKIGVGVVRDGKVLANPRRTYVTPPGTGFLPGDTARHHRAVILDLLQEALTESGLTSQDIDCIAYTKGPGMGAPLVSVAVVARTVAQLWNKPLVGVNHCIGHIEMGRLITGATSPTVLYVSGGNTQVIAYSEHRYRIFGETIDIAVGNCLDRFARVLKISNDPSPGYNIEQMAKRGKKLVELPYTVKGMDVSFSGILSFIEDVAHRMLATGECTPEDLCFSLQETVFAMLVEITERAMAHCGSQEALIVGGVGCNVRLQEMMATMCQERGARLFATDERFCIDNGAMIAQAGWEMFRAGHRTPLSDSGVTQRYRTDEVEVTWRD


The binders below were run against T1, MBP-tagged OSGEP (assay: pull-down; GST-tagged PRPK proteins captured on 20 µl glutathione Sepharose 4B from BL21 lysates, then incubated with about 15 µg purified His-TPRKB or MBP-OSGEP; 20 mM Tris-HCl pH 8.0, 300 mM NaCl, 0.1% Nonidet P-40, 5% glycerol, 2 mM DTT, 0.4 mM PMSF; 2 h at 4°C; 4 washes; Western blot with anti-His or anti-MBP). Settings: both partners purified.

| binding result | Binder |
| --- | --- |
| binds | GST-tagged PRPK S250E (enzyme, human, UniProt Q96S44 1-253, looked up, human p53-related protein kinase (PRPK, TP53RK) with S250E; source: E. coli BL21 lysate, captured on glutathione Sepharose 4B resin) MAAARATTPADGEEPAPEAEALAAARERSSRFLSGLELVKQGAEARVFRGRFQGRAAVIKHRFPKGYRHPALEARLGRRRTVQEARALLRCRRAGISAPVVFFVDYASNCLYMEEIEGSVTVRDYIQSTMETEKTPQGLSNLAKTIGQVLARMHDEDLIHGDLTTSNMLLKPPLEQLNIVLIDFGLSFISALPEDKGVDLYVLEKAFLSTHPNTETVFEAFLKSYSTSSKKARPVLKKLDEVRLRGRKREMVG |
| binds | GST-tagged PRPK K65A (enzyme, human, UniProt Q96S44 1-253, looked up, human p53-related protein kinase (PRPK, TP53RK) with K65A; source: E. coli BL21 lysate, captured on glutathione Sepharose 4B resin) MAAARATTPADGEEPAPEAEALAAARERSSRFLSGLELVKQGAEARVFRGRFQGRAAVIKHRFPAGYRHPALEARLGRRRTVQEARALLRCRRAGISAPVVFFVDYASNCLYMEEIEGSVTVRDYIQSTMETEKTPQGLSNLAKTIGQVLARMHDEDLIHGDLTTSNMLLKPPLEQLNIVLIDFGLSFISALPEDKGVDLYVLEKAFLSTHPNTETVFEAFLKSYSTSSKKARPVLKKLDEVRLRGRKRSMVG |
| binds | GST-tagged PRPK K205A (enzyme, human, UniProt Q96S44 1-253, looked up, human p53-related protein kinase (PRPK, TP53RK) with K205A; source: E. coli BL21 lysate, captured on glutathione Sepharose 4B resin) MAAARATTPADGEEPAPEAEALAAARERSSRFLSGLELVKQGAEARVFRGRFQGRAAVIKHRFPKGYRHPALEARLGRRRTVQEARALLRCRRAGISAPVVFFVDYASNCLYMEEIEGSVTVRDYIQSTMETEKTPQGLSNLAKTIGQVLARMHDEDLIHGDLTTSNMLLKPPLEQLNIVLIDFGLSFISALPEDKGVDLYVLEAAFLSTHPNTETVFEAFLKSYSTSSKKARPVLKKLDEVRLRGRKRSMVG |

The remaining lines, values behind:

| Binder | binding result |
| --- | --- |
| GST-tagged PRPK S250A (enzyme, human, UniProt Q96S44 1-253, looked up, human p53-related protein kinase (PRPK, TP53RK) with S250A; source: E. coli BL21 lysate, captured on glutathione Sepharose 4B resin) MAAARATTPADGEEPAPEAEALAAARERSSRFLSGLELVKQGAEARVFRGRFQGRAAVIKHRFPKGYRHPALEARLGRRRTVQEARALLRCRRAGISAPVVFFVDYASNCLYMEEIEGSVTVRDYIQSTMETEKTPQGLSNLAKTIGQVLARMHDEDLIHGDLTTSNMLLKPPLEQLNIVLIDFGLSFISALPEDKGVDLYVLEKAFLSTHPNTETVFEAFLKSYSTSSKKARPVLKKLDEVRLRGRKRAMVG | binds |
| GST-tagged PRPK R80A (enzyme, human, UniProt Q96S44 1-253, looked up, human p53-related protein kinase (PRPK, TP53RK) with R80A; source: E. coli BL21 lysate, captured on glutathione Sepharose 4B resin) MAAARATTPADGEEPAPEAEALAAARERSSRFLSGLELVKQGAEARVFRGRFQGRAAVIKHRFPKGYRHPALEARLGRRATVQEARALLRCRRAGISAPVVFFVDYASNCLYMEEIEGSVTVRDYIQSTMETEKTPQGLSNLAKTIGQVLARMHDEDLIHGDLTTSNMLLKPPLEQLNIVLIDFGLSFISALPEDKGVDLYVLEKAFLSTHPNTETVFEAFLKSYSTSSKKARPVLKKLDEVRLRGRKRSMVG | binds |
| GST-tagged PRPK (wild type) (enzyme, human, UniProt Q96S44 1-253, looked up, human p53-related protein kinase (PRPK, TP53RK); Cloned into pGEX-6p-1; Parent of the GST-PRPK mutants; also called GST-PRPK; TP53RK; source: E. coli BL21 lysate, captured on glutathione Sepharose 4B resin) MAAARATTPADGEEPAPEAEALAAARERSSRFLSGLELVKQGAEARVFRGRFQGRAAVIKHRFPKGYRHPALEARLGRRRTVQEARALLRCRRAGISAPVVFFVDYASNCLYMEEIEGSVTVRDYIQSTMETEKTPQGLSNLAKTIGQVLARMHDEDLIHGDLTTSNMLLKPPLEQLNIVLIDFGLSFISALPEDKGVDLYVLEKAFLSTHPNTETVFEAFLKSYSTSSKKARPVLKKLDEVRLRGRKRSMVG | binds |
